# Assay results as given in the supplement of paper PMC11316812.
# ± gives the standard deviation of the averaged measurements.
# What was measured:
# MCF7 = experiment: percentage of EdU-negative (G0-arrested) nuclei per well, 72 h; higher = more G0 arrest; conditions: reference: sequence is the full UniProt precursor, the tested protein was the secreted form or ectodomain
# hTERT-HMEC = experiment: as above; conditions: reference: sequence is the full UniProt precursor, the tested protein was the secreted form or ectodomain
# [1] = protein concentration 0.0225 µM
# [2] = protein concentration 0.03125 µM
# [3] = protein concentration 0.3125 µM
# [4] = protein concentration 0.00828571 µM
# [5] = protein concentration 0.0828571 µM
# [6] = protein concentration 0.02075 µM
# [7] = protein concentration 0.2075 µM
# [8] = protein concentration 0.0239275 µM
# [9] = protein concentration 0.239275 µM
# [10] = protein concentration 0.0245 µM
# 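Note: secreted proteins added to cultured cells, EdU pulse at the end, nuclei found by Hoechst imaging, EdU status from nuclear versus surrounding ring intensity ratio, PBS as neutral control.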
sequence,measurement,setting,value
MGSRGQGLLLAYCLLLAFASGLVLSRVPHVQGEQQEWEGTEELPSPPDHAERAEEQHEKYRPSQDQGLPASRCLRCCDPGTSMYPATAVPQINITILKGEKGDRGDRGLQGKYGKTGSAGARGHTGPKGQKGSMGAPGERCKSHYAAFSVGRKKPMHSNHYYQTVIFDTEFVNLYDHFNMFTGKFYCYVPGLYFFSLNVHTWNQKETYLHIMKNEEEVVILFAQVGDRSIMQSQSLMLELREQDQVWVRLYKGERENAIFSEELDTYITFSGYLVKHATEP [Q9BXJ1],percentage of EdU-negative,MCF7; [1],24.69 ± 0.17%
same,percentage of EdU-negative,MCF7; protein concentration 0.225 µM,23.7 ± 2.1%
same,percentage of EdU-negative,hTERT-HMEC; [1],4.31 ± 0.1%
same,percentage of EdU-negative,hTERT-HMEC; protein concentration 0.225 µM,4.49 ± 0.49%
MGSSSFLVLMVSLVLVTLVAVEGVKEGIEKAGVCPADNVRCFKSDPPQCHTDQDCLGERKCCYLHCGFKCVIPVKELEEGGNKDEDVSRPYPEPGWEAKCPGSSSTRCPQK [Q8WWY7],percentage of EdU-negative,MCF7; [2],26.5 ± 3.1%
same,percentage of EdU-negative,MCF7; [3],24 ± 2.8%
same,percentage of EdU-negative,hTERT-HMEC; [2],5.3 ± 0.5%
same,percentage of EdU-negative,hTERT-HMEC; [3],5.28 ± 0.67%
MGTATRRKPHLLLVAAVALVSSSAWSSALGSQTTFGPVFEDQPLSVLFPEESTEEQVLLACRARASPPATYRWKMNGTEMKLEPGSRHQLVGGNLVIMNPTKAQDAGVYQCLASNPVGTVVSREAILRFGFLQEFSKEERDPVKAHEGWGVMLPCNPPAHYPGLSYRWLLNEFPNFIPTDGRHFVSQTTGNLYIARTNASDLGNYSCLATSHMDFSTKSVFSKFAQLNLAAEDTRLFAPSIKARFPAETYALVGQQVTLECFAFGNPVPRIKWRKVDGSLSPQWTTAEPTLQIPSVSFEDEGTYECEAENSKGRDTVQGRIIVQAQPEWLKVISDTEADIGSNLRWGCAAAGKPRPTVRWLRNGEPLASQNRVEVLAGDLRFSKLSLEDSGMYQCVAENKHGTIYASAELAVQALAPDFRLNPVRRLIPAARGGEILIPCQPRAAPKAVVLWSKGTEILVNSSRVTVTPDGTLIIRNISRSDEGKYTCFAENFMGKANSTGILSVRDATKITLAPSSADINLGDNLTLQCHASHDPTMDLTFTWTLDDFPIDFDKPGGHYRRTNVKETIGDLTILNAQLRHGGKYTCMAQTVVDSASKEATVLVRGPPGPPGGVVVRDIGDTTIQLSWSRGFDNHSPIAKYTLQARTPPAGKWKQVRTNPANIEGNAETAQVLGLTPWMDYEFRVIASNILGTGEPSGPSSKIRTREAAPSVAPSGLSGGGGAPGELIVNWTPMSREYQNGDGFGYLLSFRRQGSTHWQTARVPGADAQYFVYSNESVRPYTPFEVKIRSYNRRGDGPESLTALVYSAEEEPRVAPTKVWAKGVSSSEMNVTWEPVQQDMNGILLGYEIRYWKAGDKEAAADRVRTAGLDTSARVSGLHPNTKYHVTVRAYNRAGTGPASPSANATTMKPPPRRPPGNISWTFSSSSLSIKWDPVVPFRNESAVTGYKMLYQNDLHLTPTLHLTGKNWIEIPVPEDIGHALVQIRTTGPGGDGIPAEVHIVRNGGTSMMVENMAVRPAPHPGTVISHSVAMLILIGSLEL,percentage of EdU-negative,MCF7; [4],24.5 ± 3%
same,percentage of EdU-negative,MCF7; [5],25.1 ± 0.57%
same,percentage of EdU-negative,hTERT-HMEC; [4],5.61 ± 0.96%
same,percentage of EdU-negative,hTERT-HMEC; [5],5.98 ± 2%
MGTKAQVERKLLCLFILAILLCSLALGSVTVHSSEPEVRIPENNPVKLSCAYSGFSSPRVEWKFDQGDTTRLVCYNNKITASYEDRVTFLPTGITFKSVTREDTGTYTCMVSEEGGNSYGEVKVKLIVLVPPSKPTVNIPSSATIGNRAVLTCSEQDGSPPSEYTWFKDGIVMPTNPKSTRAFSNSSYVLNPTTGELVFDPLSASDTGEYSCEARNGYGTPMTSNAVRMEAVERNVGVIVAAVLVTLILLGILVFGIWFAYSRGHFDRTKKGTSSKKVIYSQPSARSEGEFKQTSSFLV [Q9Y624],percentage of EdU-negative,MCF7; [1],24.4 ± 0.49%
same,percentage of EdU-negative,MCF7; protein concentration 0.225 µM,25.6 ± 5.5%
same,percentage of EdU-negative,hTERT-HMEC; [1],4.79 ± 0.22%
same,percentage of EdU-negative,hTERT-HMEC; protein concentration 0.225 µM,5.1 ± 1.2%
MGTLPWLLAFFILGLQAWDTPTIVSRKEWGARPLACRALLTLPVAYIITDQLPGMQCQQQSVCSQMLRGLQSHSVYTIGWCDVAYNFLVGDDGRVYEGVGWNIQGLHTQGYNNISLGIAFFGNKIGSSPSPAALSAAEGLISYAIQKGHLSPRYIQPLLLKEETCLDPQHPVMPRKVCPNIIKRSAWEARETHCPKMNLPAKYVIIIHTAGTSCTVSTDCQTVVRNIQSFHMDTRNFCDIGYHFLVGQDGGVYEGVGWHIQGSHTYGFNDIALGIAFIGYFVEKPPNAAALEAAQDLIQCAVVEGYLTPNYLLMGHSDVVNILSPGQALYNIISTWPHFKH [Q96LB9],percentage of EdU-negative,MCF7; [6],25.5 ± 4.8%
same,percentage of EdU-negative,MCF7; [7],26.6 ± 2.1%
same,percentage of EdU-negative,hTERT-HMEC; [6],5.52 ± 0.69%
same,percentage of EdU-negative,hTERT-HMEC; [7],5.51 ± 0.12%
MGTLSAPPCTQRIKWKGLLLTASLLNFWNLPTTAQVTIEAEPTKVSEGKDVLLLVHNLPQNLTGYIWYKGQMRDLYHYITSYVVDGEIIIYGPAYSGRETAYSNASLLIQNVTREDAGSYTLHIIKGDDGTRGVTGRFTFTLHLETPKPSISSSNLNPRETMEAVSLTCDPETPDASYLWWMNGQSLPMTHSLKLSETNRTLFLLGVTKYTAGPYECEIRNPVSASRSDPVTLNLLPKLPKPYITINNLNPRENKDVLNFTCEPKSENYTYIWWLNGQSLPVSPRVKRPIENRILILPSVTRNETGPYQCEIRDRYGGIRSDPVTLNVLYGPDLPRIYPSFTYYRSGEVLYLSCSADSNPPAQYSWTINEKFQLPGQKLFIRHITTKHSGLYVCSVRNSATGKESSKSMTVEVSDWTVP,percentage of EdU-negative,MCF7; [8],25 ± 2.2%
same,percentage of EdU-negative,MCF7; [9],25.7 ± 1.8%
same,percentage of EdU-negative,hTERT-HMEC; [8],5.16 ± 0.84%
same,percentage of EdU-negative,hTERT-HMEC; [9],7.5 ± 0.26%
MGTPRIQHLLILLVLGASLLTSGLELYCQKGLSMTVEADPANMFNWTTEEVETCDKGALCQETILIIKAGTETAILATKGCIPEGEEAITIVQHSSPPGLIVTSYSNYCEDSFCNDKDSLSQFWEFSETTASTVSTTLHCPTCVALGTCFSAPSLPCPNGTTRCYQGKLEITGGGIESSVEVKGCTAMIGCRLMSGILAVGPMFVREACPHQLLTQPRKTENGATCLPIPVWGLQLLLPLLLPSFIHFS [Q9BY14],percentage of EdU-negative,MCF7; [10],25.5 ± 2%
same,percentage of EdU-negative,MCF7; protein concentration 0.245 µM,26.5 ± 0.59%
same,percentage of EdU-negative,hTERT-HMEC; [10],5.14 ± 0.066%
same,percentage of EdU-negative,hTERT-HMEC; protein concentration 0.245 µM,5.33 ± 0.8%
MGTSLLCWMALCLLGADHADTGVSQNPRHKITKRGQNVTFRCDPISEHNRLYWYRQTLGQGPEFLTYFQNEAQLEKSRLLSDRFSAERPKGSFSTLEIQRTEQGDSAMYLCASSL,percentage of EdU-negative,MCF7; [1],27 ± 1.4%
same,percentage of EdU-negative,MCF7; protein concentration 0.225 µM,26.8 ± 1.4%
same,percentage of EdU-negative,hTERT-HMEC; [1],5.02 ± 0.49%
same,percentage of EdU-negative,hTERT-HMEC; protein concentration 0.225 µM,6.26 ± 1.2%
